In publication PMC9445664, “A transcription factor TaMYB5 modulates leaf rolling in wheat”:

B1: mutant 3xAC probe (dsDNA)
DNA 1: AGTCCAAATATTGCCAAATATTGCCAAATATTGCTGTT
DNA 2: AACAGCAATATTTGGCAATATTTGGCAATATTTGGACT
B2: 3xAC probe (AC box of TaNRL1 promoter) (dsDNA)
DNA 1: AGTCCACCTAACGCCACCTAACGCCACCTAACGCTGTT
DNA 2: AACAGCGTTAGGTGGCGTTAGGTGGCGTTAGGTGGACT

Legend:
[1] = molecular target: T1, TaMYB5 (GST-TaMYB5) (Triticum aestivum, UniProt A0A3B6ELG7 1-265); test: competition; EMSA; unlabeled mutant probe against biotin-labeled N1; LightShift Chemiluminescent EMSA Kit (Thermo); buffer, salt, pH and temperature not stated; settings: protein: recombinant; tags: N-terminal GST; blunt
T1 sequence (A0A3B6ELG7 entry or part of it): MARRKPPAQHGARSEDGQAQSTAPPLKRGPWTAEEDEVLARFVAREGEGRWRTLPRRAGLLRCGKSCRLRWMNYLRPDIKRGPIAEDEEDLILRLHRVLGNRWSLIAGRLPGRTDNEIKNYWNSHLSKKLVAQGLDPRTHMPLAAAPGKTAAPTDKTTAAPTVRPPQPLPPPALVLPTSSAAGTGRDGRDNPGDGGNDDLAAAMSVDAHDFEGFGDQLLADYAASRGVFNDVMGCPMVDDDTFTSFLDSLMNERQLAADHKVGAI

[2] = molecular target: T1, TaMYB5 (GST-TaMYB5); test: EMSA; unlabeled N1 competes; LightShift Chemiluminescent EMSA Kit (Thermo); buffer, salt, pH and temperature not stated; settings: protein: recombinant; tags: N-terminal GST; label: biotin (labeled probe); blunt

Binder	binding result [1]	binding result [2]
B1	no binding	–
B2	–	binds
